Data as given in patent US20200199241A1 (Chugai, published 2020).
Where two headings read alike, the source gives them in different places.

Columns and labels:
human FcγRIIa(R) = molecular target: T1, human FcγRIIa(R) (human, UniProt P12318 36-217); test: SPR, pH 7.4, antibody captured by Protein L
T1 construct: also called FcgRIIaR; hFcgRIIa(R)
T1 chain: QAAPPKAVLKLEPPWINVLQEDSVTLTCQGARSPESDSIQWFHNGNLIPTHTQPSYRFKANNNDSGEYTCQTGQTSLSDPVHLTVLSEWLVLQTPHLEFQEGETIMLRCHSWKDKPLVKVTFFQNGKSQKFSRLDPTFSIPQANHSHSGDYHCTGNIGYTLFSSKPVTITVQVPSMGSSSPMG
Procedure: (§1) Interaction of these antibodies with FcγRIIa(R) and FcγRIIb was analyzed using the BIACORE™ T100 surface plasmon resonance system (GE Healthcare). Measurements were carried out at 25° C. using a buffer consisting of 20 mM N-(2-acetamido)-2-aminoethanesulfonic acid (ACES), 150 mM NaCl and 0.05% polysorbate 20 (Tween 20®) (pH 7.4) for the running buffer. The Series S Sensor Chip CM4 (GE Healthcare) was used after immobilizing Protein L by amine coupling. […] Antibody captured on the chip was washed by reacting with 10 mM glycine-HCl (pH 1.5) following measurement, and the chip regenerated in this manner was used repeatedly.
(§2) Measurement results were analyzed using the BIACORE™ Evaluation Software. Antibody was captured by Protein L, and the amount of change in a sensorgram before and after the antibody was captured was defined as X1. […]

human FcγRIIb [1] = molecular target: T2, human FcγRIIb (human, UniProt P31994 43-217, limits assumed); test: SPR, pH 7.4, antibody captured by Protein L
T2 construct: also called FcgRIIb; hFcgRIIb
T2 sequence: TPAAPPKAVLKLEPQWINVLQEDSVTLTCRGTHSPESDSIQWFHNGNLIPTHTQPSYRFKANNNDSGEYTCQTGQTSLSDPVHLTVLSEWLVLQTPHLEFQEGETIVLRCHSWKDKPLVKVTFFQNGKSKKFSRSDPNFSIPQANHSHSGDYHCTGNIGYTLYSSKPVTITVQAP
Procedure: as §1, §2

mouse FcRn = molecular target: T3, mouse FcRn (mouse, UniProt Q61559 22-297; P01887 21-119, limits assumed); test: SPR, mouse FcRn, pH 7.0
T3 construct: also called mFcRn
T3 sequence (looked up) 1: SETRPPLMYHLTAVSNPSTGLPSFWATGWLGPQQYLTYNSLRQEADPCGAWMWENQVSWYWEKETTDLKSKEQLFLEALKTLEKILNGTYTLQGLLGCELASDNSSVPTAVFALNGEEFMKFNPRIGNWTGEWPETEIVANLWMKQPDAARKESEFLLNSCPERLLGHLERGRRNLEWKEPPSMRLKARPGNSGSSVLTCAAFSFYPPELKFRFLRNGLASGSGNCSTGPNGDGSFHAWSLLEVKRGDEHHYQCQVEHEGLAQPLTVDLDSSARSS
T3 sequence (looked up) 2: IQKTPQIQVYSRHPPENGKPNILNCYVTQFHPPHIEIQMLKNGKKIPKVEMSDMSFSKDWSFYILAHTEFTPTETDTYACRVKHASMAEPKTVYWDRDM

human FcγRIIb [2] = molecular target: T4, human FcγRIIb (human, UniProt P31994 43-217, limits assumed); test: SPR (Biacore), antibody captured, FcγR as analyte
T4 construct: also called FcγIIB
T4 sequence: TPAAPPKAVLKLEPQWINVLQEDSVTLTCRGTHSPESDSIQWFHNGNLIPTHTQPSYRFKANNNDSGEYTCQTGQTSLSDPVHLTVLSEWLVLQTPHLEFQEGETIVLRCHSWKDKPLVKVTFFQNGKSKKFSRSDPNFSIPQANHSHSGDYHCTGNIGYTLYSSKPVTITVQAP

human FcγRIa [3] = molecular target: T5, human FcγRIa (human, UniProt P12314 16-292, limits assumed); test: SPR (Biacore), binding amount relative to IL6R-BF648/IL6R-L = 100
T5 construct: also called CD64

human FcγRIIIa type V [4] = molecular target: T6, human FcγRIIIa type V (human, UniProt P08637 17-208, limits assumed); test: as above
T6 construct: also called FcγRIIIaV; FcγRIIIa(V)

human FcγRIIa type H [5] = molecular target: T7, human FcγRIIa type H (human, UniProt P12318 36-217); test: as above
T7 construct: also called FcγRIIaH; FcγRIIa(H)
T7 sequence: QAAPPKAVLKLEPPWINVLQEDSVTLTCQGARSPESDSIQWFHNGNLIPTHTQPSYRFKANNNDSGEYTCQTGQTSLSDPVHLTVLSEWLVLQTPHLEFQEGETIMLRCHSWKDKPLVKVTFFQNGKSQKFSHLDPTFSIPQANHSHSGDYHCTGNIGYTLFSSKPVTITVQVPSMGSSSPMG

human FcγRIIa type R [6] = molecular target: T8, human FcγRIIa type R (human, UniProt P12318 36-217); test: as above
T8 construct: also called FcγRIIaR; FcγRIIa(R)
T8 chain: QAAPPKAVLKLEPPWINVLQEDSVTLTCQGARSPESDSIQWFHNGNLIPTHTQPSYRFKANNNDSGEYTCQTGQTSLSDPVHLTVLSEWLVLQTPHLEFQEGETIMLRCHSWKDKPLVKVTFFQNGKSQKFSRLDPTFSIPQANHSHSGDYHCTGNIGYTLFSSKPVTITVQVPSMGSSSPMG

human FcγRIIb [7] = molecular target: T4, human FcγRIIb; test: as above
human FcγRIIb [8] = molecular target: T4, human FcγRIIb; test: SPR (Biacore); ratio against IgG1
Procedure: (§3) Next, interaction between these antibodies and FcγR was analyzed kinetically using the BIACORE™ T100 (GE Healthcare). The interaction was measured at a temperature of 25° C. using HBS-EP+ (GE Healthcare) for the running buffer. The Series S Sensor Chip CMS (GE Healthcare) was used after immobilizing Protein A by amine coupling. […] Antibody captured on the chip was washed by allowing 10 mM glycine-HCl (pH 1.5) to react following measurement. The chip regenerated in this manner was used repeatedly. The dissociation constant KD (mol/L) was calculated from the association rate constant ka (L/mol/s) and dissociation rate constant kd (l/s) as calculated by global-fitting the measurement results with a 1:1 Langmuir binding model using the BIACORE™ Evaluation Software.

human FcγRIIb [9] = molecular target: T4, human FcγRIIb; test: SPR (Biacore); ratio against parent IL6R-F11/IL6R-L
human FcγRIa [10] = molecular target: T5, human FcγRIa; test: SPR (Biacore), antibody captured, FcγR as analyte
human FcγRIIIa type V [11] = molecular target: T6, human FcγRIIIa type V; test: SPR (Biacore), antibody captured, FcγR as analyte
human FcγRIIa type H [12] = molecular target: T7, human FcγRIIa type H; test: SPR (Biacore), antibody captured, FcγR as analyte
human FcγRIIa type R [13] = molecular target: T8, human FcγRIIa type R; test: SPR (Biacore), antibody captured, FcγR as analyte
human FcγRIIb [14] = molecular target: T4, human FcγRIIb; test: SPR (Biacore), antibody captured, FcγR as analyte; remark: listed apart in the source
human FcγRIIb [15] = molecular target: T4, human FcγRIIb; test: SPR (Biacore); KD for FcγRIIaR divided by KD for FcγRIIb of the same antibody
human FcγRIIb [16] = molecular target: T4, human FcγRIIb; test: SPR (Biacore); KD for FcγRIIaH divided by KD for FcγRIIb of the same antibody
human FcγRIIb [17] = molecular target: T4, human FcγRIIb; test: SPR (Biacore); ratio against IgG1; remark: listed apart in the source
human FcγRIIb [18] = molecular target: T4, human FcγRIIb; test: SPR (Biacore), antibody captured, FcγR as analyte; remark: listed apart in the source
Procedure: as §3

T6 sequence (P08637 other isoform, or with tags, fused parts or gaps limits assumed): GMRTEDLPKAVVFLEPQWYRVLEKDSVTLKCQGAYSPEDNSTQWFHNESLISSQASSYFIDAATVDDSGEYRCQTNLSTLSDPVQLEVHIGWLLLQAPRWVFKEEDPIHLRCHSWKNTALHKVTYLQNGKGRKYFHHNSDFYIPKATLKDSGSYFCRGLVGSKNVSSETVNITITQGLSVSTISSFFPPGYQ
T5 sequence (P12314 16-292 limits assumed): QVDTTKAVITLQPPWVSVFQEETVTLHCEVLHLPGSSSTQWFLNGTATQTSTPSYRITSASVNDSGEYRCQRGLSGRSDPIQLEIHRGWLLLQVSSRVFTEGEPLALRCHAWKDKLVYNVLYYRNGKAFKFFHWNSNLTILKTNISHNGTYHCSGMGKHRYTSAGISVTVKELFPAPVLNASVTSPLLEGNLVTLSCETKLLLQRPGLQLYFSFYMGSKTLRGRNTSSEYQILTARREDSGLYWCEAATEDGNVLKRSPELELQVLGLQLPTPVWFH

B1: VH3-IgG1-F652/L(WT)-CK (antibody)
heavy: QVQLQESGPGLVKPSETLSLTCAVSGHSISHDHAWSWVRQPPGEGLEWIGFISYSGITNYNPSLQGRVTISRDNSKNTLYLQMNSLRAEDTAVYYCARSLARTTAMDYWGEGTLVTVSSASTKGPSVFPLAPSSKSTSGGTAALGCLVKDYFPEPVTVSWNSGALTSGVHTFPAVLQSSGLYSLSSVVTVPSSSLGTQTYICNVNHKPSNTKVDKKVEPKSCDKTHTCPPCPAPELLGGDSVFLFPPKPKDTLYISRTPEVTCVVVDVSHEDPEVKFNWYVDGVEVHNAKTKPREEQYNSTYRVVSVLTVLHQDWLNGKEYKCKVSNKALPAPIEKTISKAKGQPREPQVYTLPPSRDELTKNQVSLTCLVKGFYPSDIAVEWESNGQPENNYKTTPPVLDSDGSFFLYSKLTVDKSRWQQGNVFSCSVMHEALHYHYTQKSLSLSP
light: not shown
notes: P238D in VH3-IgG1-F11; copies: 2 + 2
Binder B1 has a binding amount (human FcγRIIa(R)) of 9.1 RU and a binding amount (human FcγRIIb [1]) of 64 RU.

B2: antibody with mPM1H-mIgG1-mF3 heavy chain and L(WT)-CK light chain (antibody)
heavy: DVQLQESGPVLVKPSQSLSLTCTVTGYSITSDHAWSWIRQFPGNKLEWMGYISYSGITTYNPSLKSRISITRDTSKNQFFLQLNSVTTGDTSTYYCARSLARTTAMDYWGQGTSVTVSSAKTTPPSVYPLAPGSAAQTNSMVTLGCLVKGYFPEPVTVTWNSGSLSSGVHTFPAVLQSDLYTLSSSVTVPSSTWPSETVTCNVAHPASSTKVDKKIVPRDCGCKPCICTVPEVSSVFIFPPKPKDVLYITLEPKVTCVVVDISKDDPEVQFSWFVDDVEVHTAQTQPREEQFNSTFRSVSELPIMHQDWLNGKEFKCRVNSAAFPAPIEKTISKTKGRPKAPQVYTIPPPKEQMAKDKVSLTCMITDFFPEDITVEWQWNGQPAENYKNTQPIMDTDGSYFVYSKLNVQKSNWEAGNTFTCSVLHEGLKFHHTEKSLSHSPGK
light: not shown
notes: T252Y/T256E/H433K/N434F; copies: 2 + 2
Work on B2 yielded a Kd (mouse FcRn) of 1.6 nM.

B3: IL6R-G1d/IL6R-L (antibody, human IgG1)
heavy: not shown
light: DIQMTQSPSSLSASVGDRVTITCRASQDISSYLNWYQQKPGKAPKLLIYYTSRLHSGVPSRFSGSGSGTDFTFTISSLQPEDIATYYCQQGNTLPYTFGQGTKVEIK
notes: Anti-human IL-6 receptor antibody with the G1d constant region (human IgG1 without the C-terminal Gly-Lys); also called IgG1; IgG1 (IL6R-G1d)
Binder B3 has a Kd (human FcγRIIb [2]) of 5300 nM, a relative binding (human FcγRIa [3]) of 140 and a relative binding (human FcγRIIIa type V [4]) of 3350. The relative binding (human FcγRIIa type H [5]) was 1670, the relative binding (human FcγRIIa type R [6]) was 650 and the relative binding (human FcγRIIb [7]) was 62. The “relative KD for FcγRIIb (KD for IgG1/KD for each variant)” value (human FcγRIIb [8]) was 1, the “KD(IIb) of parent polypeptide/KD(IIb) of altered polypeptide” value (human FcγRIIb [9]) was 2.6 and the Kd (human FcγRIa [10]) was 0.32 nM. It also gave a Kd (human FcγRIIIa type V [11]) of 350 nM, a Kd (human FcγRIIa type H [12]) of 670 nM and a Kd (human FcγRIIa type R [13]) of 1000 nM. For the same binder, the Kd (human FcγRIIb [14]) was 2600 nM, the “KD(IIaR)/KD(IIb)” value (human FcγRIIb [15]) was 0.4 and the “KD(IIaH)/KD(IIb)” value (human FcγRIIb [16]) was 0.3. For the same binder, the “relative KD for FcγRIIb (KD for IgG1/KD for each variant)” value (human FcγRIIb [17]) was 1 and the Kd (human FcγRIIb [18]) was 5300 nM.
